Measurements taken from the MegaScale stability set (Tsuboyama et al. 2023).

B1: HEEH_KT_rd6_3632 (parent)
chain: DAEELIELVERALKEGREIILLGVRITSEEAGKWFIEWIRRFL

Variants of: B1
Assay: folding stability dG (cDNA display proteolysis); higher = more stable
Details: PBS, room temperature

Point of comparison: DAEELIELVERALKEGRHIILLGVRITSEEAGKWFIEWIRRFL, “folding stability dG” value 3.85 kcal/mol. Against it:
- DAEELIELVERALKNGREIILLGVRITSEEAGKWFIEWIRRFL — lower, 3.57 kcal/mol
- DAEELIELVERALKSGREIILLGVRITSEEAGKWFIEWIRRFL — lower, 3.73 kcal/mol
- DAEELIELVERALKQGREIILLGVRITSEEAGKWFIEWIRRFL — lower, 3.46 kcal/mol
- DAEELIELVERALKYGREIILLGVRITSEEAGKWFIEWIRRFL — lower, 3.67 kcal/mol
- DAEELIELVERALKRGREIILLGVRITSEEAGKWFIEWIRRFL — lower, 3.38 kcal/mol
- DAEELIELVERALKPGREIILLGVRITSEEAGKWFIEWIRRFL — lower, 3.21 kcal/mol
- DAEELIELVERALKTGREIILLGVRITSEEAGKWFIEWIRRFL — lower, 3.48 kcal/mol
- DAEELIELVERALKVGREIILLGVRITSEEAGKWFIEWIRRFL — lower, 3.57 kcal/mol
- DAEELIELVERALKWGREIILLGVRITSEEAGKWFIEWIRRFL — higher, 3.95 kcal/mol
- DAEELIELVERALKEGRNIILLGVRITSEEAGKWFIEWIRRFL — lower, 3.69 kcal/mol
- DAEELIELVERALKEGRDIILLGVRITSEEAGKWFIEWIRRFL — lower, 3.44 kcal/mol
- DAEELIELVERALKEGRKIILLGVRITSEEAGKWFIEWIRRFL — lower, 3.55 kcal/mol
- DAEELIELVERALKEGRQIILLGVRITSEEAGKWFIEWIRRFL — lower, 3.74 kcal/mol
- DAEELIELVERALKEGRGIILLGVRITSEEAGKWFIEWIRRFL — lower, 3.58 kcal/mol
- DAEELIELVERALKEGRPIILLGVRITSEEAGKWFIEWIRRFL — lower, 3.64 kcal/mol
- DAEELIELVERALKEGRIIILLGVRITSEEAGKWFIEWIRRFL — higher, 4.02 kcal/mol
- DAEELIELVERALKEGRLIILLGVRITSEEAGKWFIEWIRRFL — lower, 3.83 kcal/mol
- DAEELIELVERALKEGRAIILLGVRITSEEAGKWFIEWIRRFL — lower, 3.74 kcal/mol
- DAEELIELVERALKEGRFIILLGVRITSEEAGKWFIEWIRRFL — higher, 3.87 kcal/mol
- DAEELIELVERALKEGRRIILLGVRITSEEAGKWFIEWIRRFL — lower, 3.79 kcal/mol
- DAEELIELVERALKEGRMIILLGVRITSEEAGKWFIEWIRRFL — lower, 3.66 kcal/mol
- DAEELIELVERALKEKREIILLGVRITSEEAGKWFIEWIRRFL — lower, 3.53 kcal/mol
- DAEELIELVERALKEDREIILLGVRITSEEAGKWFIEWIRRFL — lower, 3.07 kcal/mol
- DAEELIELVERALKEEREIILLGVRITSEEAGKWFIEWIRRFL — lower, 3.1 kcal/mol
- DAEELIELVERALKETREIILLGVRITSEEAGKWFIEWIRRFL — lower, 3.36 kcal/mol
- DAEELIELVERALKEIREIILLGVRITSEEAGKWFIEWIRRFL — higher, 4.25 kcal/mol
- DAEELIELVERALKESREIILLGVRITSEEAGKWFIEWIRRFL — lower, 3.49 kcal/mol
- DAEELIELVERALKEWREIILLGVRITSEEAGKWFIEWIRRFL — higher, 4 kcal/mol
- DAEELIELVERALKEQREIILLGVRITSEEAGKWFIEWIRRFL — lower, 3.42 kcal/mol
- DAEELIELVERALKERREIILLGVRITSEEAGKWFIEWIRRFL — lower, 3.44 kcal/mol
- DAEELIELVERALKEHREIILLGVRITSEEAGKWFIEWIRRFL — lower, 3.58 kcal/mol
- DAEELIELVERALKEYREIILLGVRITSEEAGKWFIEWIRRFL — lower, 3.67 kcal/mol
- DAEELIELVERALKEPREIILLGVRITSEEAGKWFIEWIRRFL — lower, 3.26 kcal/mol
- DAEELIELVERALKEMREIILLGVRITSEEAGKWFIEWIRRFL — higher, 4.09 kcal/mol
- DAEELIELVERALKECREIILLGVRITSEEAGKWFIEWIRRFL — higher, 4.34 kcal/mol
- DAEELIELVERALKELREIILLGVRITSEEAGKWFIEWIRRFL — higher, 4.32 kcal/mol
- DAEELIELVERALKEAREIILLGVRITSEEAGKWFIEWIRRFL — lower, 3.84 kcal/mol
- DAEELIELVERALKEVREIILLGVRITSEEAGKWFIEWIRRFL — lower, 3.74 kcal/mol
- DAEELIELVERALKEFREIILLGVRITSEEAGKWFIEWIRRFL — higher, 3.97 kcal/mol
- DAEELIELVERALKENREIILLGVRITSEEAGKWFIEWIRRFL — lower, 3.58 kcal/mol
- DAEELIELVERALKEGLEIILLGVRITSEEAGKWFIEWIRRFL — higher, 3.9 kcal/mol
- DAEELIELVERALKEGIEIILLGVRITSEEAGKWFIEWIRRFL — the same, 3.85 kcal/mol
- DAEELIELVERALKEGSEIILLGVRITSEEAGKWFIEWIRRFL — lower, 3.27 kcal/mol
- DAEELIELVERALKEGNEIILLGVRITSEEAGKWFIEWIRRFL — lower, 3.3 kcal/mol
- DAEELIELVERALKEGTEIILLGVRITSEEAGKWFIEWIRRFL — lower, 3.45 kcal/mol
- DAEELIELVERALKEGEEIILLGVRITSEEAGKWFIEWIRRFL — lower, 3.23 kcal/mol
- DAEELIELVERALKEGMEIILLGVRITSEEAGKWFIEWIRRFL — lower, 3.6 kcal/mol
- DAEELIELVERALKEGQEIILLGVRITSEEAGKWFIEWIRRFL — lower, 3.27 kcal/mol
- DAEELIELVERALKEGVEIILLGVRITSEEAGKWFIEWIRRFL — lower, 3.79 kcal/mol
- DAEELIELVERALKEGFEIILLGVRITSEEAGKWFIEWIRRFL — lower, 3.63 kcal/mol
- DAEELIELVERALKEGDEIILLGVRITSEEAGKWFIEWIRRFL — lower, 2.99 kcal/mol
- DAEELIELVERALKEGKEIILLGVRITSEEAGKWFIEWIRRFL — lower, 3.59 kcal/mol
- DAEELIELVERALKEGHEIILLGVRITSEEAGKWFIEWIRRFL — lower, 3.54 kcal/mol
- DAEELIELVERALKEGGEIILLGVRITSEEAGKWFIEWIRRFL — lower, 3.3 kcal/mol
- DAEELIELVERALKEGWEIILLGVRITSEEAGKWFIEWIRRFL — lower, 3.75 kcal/mol
- DAEELIELVERALKEGYEIILLGVRITSEEAGKWFIEWIRRFL — lower, 3.84 kcal/mol
- DAEELIELVERALKEGPEIILLGVRITSEEAGKWFIEWIRRFL — lower, 3.36 kcal/mol
- DAEELIELVERALKEGAEIILLGVRITSEEAGKWFIEWIRRFL — lower, 3.6 kcal/mol
